Measured values from patent US20140329320A1 (OBSCHESTVO S OGRANICHENNOI OTVETSTVENNOSTYU TEKHNOPHARMA, published 2014).

Molecular target: T1, chicken ovalbumin protein (chicken, UniProt P01012 2-386)
T1 construct: Immobilized in wells as negative control of the MIF assay; also called nonspecific protein; negative control
T1 sequence: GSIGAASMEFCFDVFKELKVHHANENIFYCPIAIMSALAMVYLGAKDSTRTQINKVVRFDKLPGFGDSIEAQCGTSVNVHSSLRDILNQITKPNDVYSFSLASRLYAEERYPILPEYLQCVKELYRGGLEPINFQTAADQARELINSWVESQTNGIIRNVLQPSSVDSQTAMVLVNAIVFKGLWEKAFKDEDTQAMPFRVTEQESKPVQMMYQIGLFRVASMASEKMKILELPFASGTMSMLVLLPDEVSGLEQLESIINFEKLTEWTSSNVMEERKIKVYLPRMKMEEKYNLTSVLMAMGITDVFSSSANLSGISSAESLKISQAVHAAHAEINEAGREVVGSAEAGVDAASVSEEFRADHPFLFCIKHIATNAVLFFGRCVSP
Assay: microimmunofluorescence (MIF) on immobilized antigen, anti-HA and FITC secondary detection

B1: aCt1 nanoantibody (VHH)
VHH: QVQLVESGGGSVQAGGSLRLSCTTSHYVASNSCMAWFRQAPGKKREGVASISRRADITFYADSVKERFVISRDNSERTLYLQMNSLKPEDTAMYYCAADLSYCGLTEEGYNHWGQGTQVTVSS
notes: also called single domain nanoantibody aCt1
  binding result: no binding (tested: 10 µ/ml)

B2: aCt2 nanoantibody (VHH)
VHH: QVQLVESGGGSVQAGGSLRLHCASSGYVEARILMGWFRQAPGKEREGVAAIYIGDGTTDYGDSVKGRFTVSQDGAKNAIYLHMYDVKPEDAATYYCAAGIMPWYRTWSGRLNVGDFDSWGQGTQVTVSS
notes: also called single domain nanoantibody aCt2
  binding result: no binding (tested: 10 µ/ml)
